Laboratory results published in patent publication US10513545B2, “Fusion polypeptide in which anti-inflammatory polypeptide and ferritin monomer fragment are bound and pharmaceutical composition for preventing and treating inflammatory diseases, containing same as active ingredient” (KYUNGPOOK NATIONAL UNIVERSITY INDUSTRY-ACADEMIC COOPERATION …, priority 2015, dated 2019).

What was measured:
[1] = test system: PAR-1; test: PAR-1 cleavage assay in transfected HUVECs (ALP activity); assay type: cell-based; details: FIG. 13
Experimental: HUVECs at 90% confluence in 24-well plates were transiently transfected with pRc/RSV containing ALP-PAR-1-TF cDNA in antibiotic-free Opti-MEM medium using Lipofectamine (Invitrogen) according to the manufacturer's instruction. On the following day, cells were washed and incubated in serum-free medium for 5 h. Cells were then incubated for an additional hour with thrombin, TRAP, TFG, or TFMG. Conditioned medium was collected and centrifuged to remove cellular debris. Supernatant was collected, and ALP (alkaline phosphatase) activity was measured using EnzoLyte™ p-nitrophenyl phosphate alkaline phosphatase assay kit (AnaSpec, San Jose, Calif.) according to the manufacturer's instructions.

[2] = test system: CLP-induced sepsis; test: H&E staining and histopathological examination of lung in CLP-induced sepsis; assay type: in vivo, mouse; details: for interstitial edema, infiltration of inflammatory cells and damage of pulmonary architecture: 200 nM intravenously 6 h after CLP, lungs 96 h after CLP, FIG. 15; for histopathologic score of pulmonary injury: in comparison with co-administration of PC-Gla and TRAP, FIG. 16
Experimental: To induce inflammation, male mice were anesthetized with 2% isoflurane (JW Pharmaceutical, Republic of Korea) in oxygen delivered via a small rodent gas anesthesia machine (RC2, Vetequip, Pleasanton, Calif.), first in a breathing chamber and then via a facemask. They were allowed to breathe spontaneously during this procedure. The CLP-induced inflammation model was prepared as previously described. In brief, a 2-cm midline incision was made to expose the cecum and adjoining intestine. The cecum was then tightly ligated with a 3.0-silk suture at 5.0 mm from the cecal tip and punctured once using a 22-gauge needle for the induction of high grade inflammation. It was then squeezed gently to extrude a small amount of feces from the perforation site and returned to the peritoneal cavity. The laparotomy site was then sutured with 4.0-silk. In sham control animals, the cecum was exposed but not ligated or punctured and then returned to the abdominal cavity. This protocol was approved by the Animal Care Committee at Kyungpook National University prior to the conduct of the study (IRP No, KNU 2012-13).
Male C57BL/6 mice underwent CLP and were administered PC-Gla with TRAP, TFG, or TFMG (200 nM) intravenously at 6 h after CLP (n=5). Mice were euthanized 96 h after CLP. To analyze the phenotypic change of the lungs in mice, lung samples were removed from each mouse, washed tree times in PBS (pH 7.4) to remove remaining blood, fixed in 4% formaldehyde solution (Junsei, Tokyo, Japan) in PBS, pH 7.4 for 20 h at 4° C. After fixation, the samples were dehydrated through ethanol series, embedded in paraffin, sectioned into 4-μm sections, and placed on a slide. The slides were de-paraffinized in a 60° C. oven, rehydrated, and stained with hematoxylin (Sigma). To remove over-staining, the slides were quick dipped three times in 0.3% acid alcohol, and counterstained with eosin (Sigma). They are then washed in ethanol series and xylene, and then coverslipped. Light microscopic analysis of lung specimens was performed by blinded observation to evaluate pulmonary architecture, tissue edema, and infiltration of the inflammatory cells. The results were classified into four grades where Grade 1 represented normal histopathology; Grade 2 represented minimal neutrophil leukocyte infiltration; Grade 3 represented moderate neutrophil leukocyte infiltration, perivascular edema formation, and partial destruction of pulmonary architecture; and Grade 4 included dense neutrophil leukocyte infiltration, abscess formation, and complete destruction of pulmonary architecture.

[3] = test system: LPS-stimulated HUVEC cells; test: in vitro permeability assay (Evans blue-bound albumin flux); assay type: cell-based, human; details: HUVECs, LPS 100 ng/mL 4 h, up to 100 nM, FIG. 19
Experimental: For spectrophotometric quantification of endothelial cell permeabilities in response to increasing concentrations of each molecule, the flux of Evans blue-bound albumin across functional cell monolayers was measured using a modified 2-compartment chamber model, as previously described. HUVECs were plated (5×10^4/well) in 12-mm diameter Transwells with a pore size of 3 μm for 3 days. Confluent monolayers of HUVECs were exposed to LPS (100 ng/mL) for 4 h before being subjected to PC-Gla with TRAP, TFG, or TFMG (up to 100 nM). Transwell inserts were then washed with TBS (pH 7.4), followed by the addition of Evans blue (0.5 mL; 0.67 mg/mL) diluted in a growth medium containing 4% BSA. Fresh growth medium was then added to the lower chamber, and the medium in the upper chamber was replaced with Evans blue/BSA. Ten minutes later, the optical density of the sample in the lower chamber was measured at 650 nm.

[4] = test system: VCAM-1, ICAM-1 and E-selectin on HUVECs; test: expression of cell adhesion molecules (CAMs), whole-cell ELISA; assay type: cell-based, human; details: LPS 100 ng/mL, FIG. 21A
Experimental: The expression of vascular cell adhesion molecule-1 (VCAM-1), intercellular adhesion molecule-1 (ICAM-1), and E-selectin on HUVECs were determined by a whole-cell ELISA as described. Briefly, confluent monolayers of HUVECs were treated with PC-Gla with TRAP, TFG, or TFMG for 6 h followed by LPS (100 ng/mL) for 16 h (VCAM-1 and ICAM-1) or 24 h (E-Selectin). After washing, mouse anti-human monoclonal VCAM-1 (100 μM; clone; 6C7.1), ICAM-1 (clone; P2A4) and E-selectin (clone; P3H3) antibodies (Millipore Corporation, 1:50 each) were added. After 1 h (37° C., 5% CO2), the cells were washed three times and then 1:2000 peroxidase-conjugated anti-mouse IgG antibody (100 μl; Sigma) was added for 1 h. The cells were washed again three times and developed using the o-phenylenediamine substrate (Sigma). Colorimetric analysis was performed by measuring absorbance at 490 nm. All measurements were performed in triplicate wells.

[5] = test system: LPS-stimulated HUVEC cells; test: cell-cell adhesion assay (leukocytes to HUVEC monolayers); assay type: cell-based, human; details: HUVECs, LPS 100 ng/mL 4 h, FIG. 21B
Experimental: Adherence of monocytes to endothelial cells was evaluated by fluorescent labeling of monocytes, as previously described. Briefly, monocytes were labeled with 5 μM Vybrant DiD for 20 min at 37° C. in phenol red-free RPMI containing 5% FBS. After washing, the cells (1.5×10^6 cells/mL, 200 μL/well) were resuspended in adhesion medium (RPMI containing 2% fetal bovine serum and 20 mM HEPES). The cells were then added to confluent monolayers of HUVECs in 96-well plates. Prior to the addition of cells, HUVECs were treated PC-Gla with TRAP, TFG, or TFMG for 6 h, followed by treatment with LPS (100 ng/mL, 4 h). Quantification of cell adhesion was determined as previously described.

B1: TFG: fusion polypeptide: TRAP at N-terminus and PC-Gla at C-terminus of short ferritin monomer fragment, forms nanocage (apparently SEQ ID NO: 14) (protein)
chain: MGGTTFLLRNASGHMSSQIRQNYSTDVEAAVNSLVNLYLQASYTYLSLGFYFDRDDVALEGVSHFFRELAEEKREGYERLLKMQNQRGGRIFLQDIKKPAEDEWGKTPDAMKAAMALEKKLNQALLDLHALGSARTDPHLCDFLETHFLDEEVKLIKKMGDHLTNLHRLGGGSEFVDGGGSGTSANSFLEELRHSSLERECIEEICDFEEAKEIFQNVDDTLAFWSKHVLEHHHHHH
modifications: Fusion polypeptide (1)
- PAR-1 cleavage activity (ability to activate PAR-1) [1]: strong similarities
- interstitial edema, infiltration of inflammatory cells and damage of pulmonary architecture [2]: significantly alleviated
- histopathologic score of pulmonary injury [2]: significantly superior effect
- in vitro endothelial cell permeability [3]: alleviated
- LPS-mediated upregulation of CAMs [4]: inhibited
- adhesion of leukocytes [5]: inhibited

B2: TFMG: as TFG with an MMP-2 cleavable linker (GPLGLAG) between ferritin fragment C-terminus and PC-Gla (apparently SEQ ID NO: 15) (protein)
chain: MGGTTFLLRNASGHMSSQIRQNYSTDVEAAVNSLVNLYLQASYTYLSLGFYFDRDDVALEGVSHFFRELAEEKREGYERLLKMQNQRGGRIFLQDIKKPAEDEWGKTPDAMKAAMALEKKLNQALLDLHALGSARTDPHLCDFLETHFLDEEVKLIKKMGDHLTNLHRLGGGSEFVDGGGSGTSGPLGLAGANSFLEELRHSSLERECIEEICDFEEAKEIFQNVDDTLAFWSKHVLEHHHHHH
modifications: Fusion polypeptide (2)
- PAR-1 cleavage activity (ability to activate PAR-1) [1]: strong similarities
- interstitial edema, infiltration of inflammatory cells and damage of pulmonary architecture [2]: significantly alleviated
- histopathologic score of pulmonary injury [2]: significantly superior effect
- in vitro endothelial cell permeability [3]: alleviated
- LPS-mediated upregulation of CAMs [4]: inhibited
- adhesion of leukocytes [5]: inhibited
